Measured values published in the supplement of paper PMC12042874.
± gives the uncertainty stated by the source.

Experiment: amyloid nucleation score (Sup35N fusion, yeast selection) (log enrichment); library NNK2; higher = more nucleation; inactive = no reads after selection
Method in brief: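 The nucleation score equals the log enrichment of output over input reads from DiMSum, centred on the mode score of non-aggregating sequences. It was computed only for sequences with 100 or more input reads. The reads came from Illumina sequencing of plasmid inserts from psi-negative yeast expressing Sup35N fused to peptides of 20 random codons, induced with 100 μM copper sulfate for 24 hours and grown 7 days at 30°C without adenine and uracil.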

Substance	amyloid nucleation score
GYNGMGRCINWVRKYRWLLW	5.355 ± 0.033
FSTRGSAMLRVAGLSGPRAS	0.29 ± 0.43
FDAQNSWSWHRSWQNVFRKG	1.54 ± 0.22
YVIFHSEEMN	inactive
VQNLMYIVISPFDRYGRCGR	9.735 ± 0.048
ENCHFLGWANNGVLKCSFT	-0.153 ± 0.63
TRLCRNLAASPGFLWTVYKS	inactive
KRWLKMWKRWQRRFMCGLLS	0.472 ± 0.32
RLDSMMVAYNAT	0.724 ± 0.81
ECLTG	-1.04 ± 0.44
QSPNHVHSLRPGLDQLSALP	-0.08 ± 0.39
CCFRLLGYAGN	-0.961 ± 0.5
FGVTHVSWIQERVTADGAER	0.998 ± 0.39
WLPMYL	0.194 ± 0.26
YRISMTAWSGRLSG	4.03 ± 0.043
RGRCNVVSSLTFTIRSLWTV	1.59 ± 0.13
TRSYQLLLVSLVAGNFVE	1.5 ± 0.27
QKTWEIANCFAELEKKIRQG	2.4 ± 0.069
IRKCRSHSFSRFRRHFS	0.285 ± 1
HYCRHLLVLHSSKYARSHSS	-0.338 ± 0.37
PNERFVSTLWCRDVCDPWSW	0.798 ± 0.51
LWDEVAGVAVKI	3.3 ± 0.1

Substance	amyloid nucleation score
NRVVHFISIFGFMNS	3.6 ± 0.098
WLNVDYSYSALRLHNCNGLM	1.64 ± 0.085
DPKHATYAKQRSGMYRYGHW	0.691 ± 0.43
FVYSVRS	0.025 ± 0.63
LVALVLPGRINENKYVCGD	-0.588 ± 0.49
PMCISLHVTTKGAMFNRGCF	7.18 ± 0.057
DGGVYTNINIFGCLVGFGGW	8.006 ± 0.026
FEYLYYIDIYLWYCEGRVAK	-0.661 ± 0.54
TPCIMWKLGLFFVDCCFGFP	4.1 ± 0.12
PWRRISMVVSWQYIEFIKYL	-0.832 ± 0.78
GFLGCESREKEECSIKERLC	-0.515 ± 1
QLVYCVNFVFFARVTNRSAR	3.95 ± 0.06
YRYKRLSRRV	-1.09 ± 0.78
YRHDVWLEE	0.016 ± 0.23
ECGDRIL	0.536 ± 0.42
YYLTT	-1.6 ± 1
LFFDTCRIPRSYWSCLEEES	-0.206 ± 0.42
ALCRGW	-0.689 ± 0.41
SRLPLTSMTNSHSWA	0.363 ± 0.43
CDCWYFKC	5.42 ± 0.095
LVDLWSRRGCKKLVRYVESL	0.818 ± 0.53
SFNNTHVVPMYLFF	5.402 ± 0.047

Substance	amyloid nucleation score
SRHTIVTGRWLFRDYQSLLW	0.19 ± 1.1
AVELGSGGALSRDKLQGQDG	0.791 ± 0.74
LSLWTIGISPVGYRLTNRHQ	-0.315 ± 1
QYQKIIWISCSIPMQMTISA	-0.097 ± 1.1
FRSKPAFRVMGVVCRGFYFL	-0.637 ± 1.1
VKVGEISCFNFKEYTFLLTD	inactive
AMTTRFCGVFLKGWL	0.176 ± 0.64
MDSMWPSVGGALKSRSGVFR	-0.126 ± 0.39
LLLTNVKW	inactive
EFDDYSFICRILSALFES	-0.153 ± 1.1
SVNWSFRSMNIFH	3.45 ± 0.055
KGSGRSQLSSIVCVFFGQTV	-0.292 ± 0.49
DFSWNGGNFTFVFSKCGL	2 ± 0.22
SGSRVYFQTPN	inactive
VRKSHS	0.308 ± 0.42
PGYSVVIWELSEEGTFYKRK	inactive
FRLPNVLRDGSA	1.41 ± 0.41
SYCHCASGPFSLNPYSLLVC	0.716 ± 0.66
NGTINALFSDEAGWSSCGYL	0.2 ± 0.34
QLVPRHNGTAKGCSGPLTRV	0.402 ± 0.26
AHLAKSKVGLFCHNVMFEVP	-0.381 ± 1.1
NWVLVVGSSWEFLSGSASGG	2.18 ± 0.17

Substance	amyloid nucleation score
RVVRGWIAYFW	0.374 ± 0.44
FVTAKSYNVLISKGYRKELL	-0.716 ± 0.48
QDPFQIRLLVVLNFDNLYLW	2.08 ± 0.1
LRLFNLKQKKNRKNWRMFAG	-0.979 ± 0.6
HHRIFGMIDELSKVTNIHFG	-0.434 ± 0.74
EVVAISNTASICLYSNYKH	5.04 ± 0.1
HHAHGFRPIGMCSCISMDPS	7.87 ± 0.059
LDICCIRGMNRHFRFYNVDV	-0.402 ± 0.61
YLRDVYSSIFAPGMRYPQTR	2.22 ± 0.094
WAKSFHTALWASLMRGRKLH	-0.44 ± 0.54
RLSSYILAIYSNRAKYF	0.412 ± 0.5
RPSFKKYFAGSSDTNGSGVC	-0.513 ± 0.64
RYTLRGSGEWLVHDTLGVTD	0.267 ± 0.5
CCHHR	1.08 ± 0.28
LRVPIR	0.077 ± 0.28
CNSDGWCRIGSAVLPVRSID	-0.441 ± 0.35
DRVLTPNKGGKPRTLPHRDS	1.19 ± 0.37
SYRNLDKTIRSDKLQVNLGI	-1.57 ± 1.1
KMKAGAMWCGSRIASKSRRG	1.51 ± 0.15
RLSRCL	4.23 ± 0.055
YKWSQASTNGHARISSAQQS	2.46 ± 0.11
CYGDAWSWEISMFCCVCRGF	7.523 ± 0.042
